± gives the standard deviation of the averaged measurements.
Assay: total protein half-life in vivo (active degradation + dilution); higher = more stable protein
[1] = E. coli NCM3722 delta-clpP, growth: N-lim chemostat, doubling time 6 h
[2] = E. coli NCM3722 delta-hslV, growth: N-lim chemostat, doubling time 6 h
[3] = E. coli NCM3722 delta-lon, growth: N-lim chemostat, doubling time 6 h
[4] = E. coli NCM3722 delta-smpB, growth: N-lim chemostat, doubling time 6 h
[5] = wild type E. coli NCM3722, growth: C-lim chemostat, doubling time 3 h
[6] = wild type E. coli NCM3722, growth: C-lim chemostat, doubling time 6 h
[7] = wild type E. coli NCM3722, growth: C-lim chemostat, doubling time 12 h
[8] = wild type E. coli NCM3722, growth: N-lim chemostat, doubling time 6 h
[9] = wild type E. coli NCM3722, growth: N-lim chemostat, doubling time 12 h
[10] = wild type E. coli NCM3722, growth: P-lim chemostat, doubling time 6 h
[11] = wild type E. coli NCM3722, growth: P-lim chemostat, doubling time 12 h
[12] = E. coli NCM3722 delta-clpP delta-lon delta-hslV, growth: N-lim chemostat, doubling time 6 h

| Sequence | total protein half-life in vivo [1] | total protein half-life in vivo [2] | total protein half-life in vivo [3] | total protein half-life in vivo [4] | total protein half-life in vivo [5] | total protein half-life in vivo [6] | total protein half-life in vivo [7] | total protein half-life in vivo [8] | total protein half-life in vivo [9] | total protein half-life in vivo [10] | total protein half-life in vivo [11] | total protein half-life in vivo [12] |
| --- | --- | --- | --- | --- | --- | --- | --- | --- | --- | --- | --- | --- |
| MKYLASFRTTLKASRYMFRALALVLWLLIAFSSVFYIVNALHQRESEIRQEFNLSSDQAQRFIQRTSDVMKELKYIAENRLSAENGVLSPRGRETQADVPAFEPLFADSDCSAMSNTWRGSLESLAWFMRYWRDNFSAAYDLNRVFLIGSDNLCMANFGLRDMPVERDTALKALHERINKYRNAPQDDSGSNLYWISEGPRPGVGYFYALTPVYLANRLQALLGVEQTIRMENFFLPGTLPMGVTILDENGHTLISLTGPESKIKGDPRWMQERSWFGYTEGFRELVLKKNLPPSSLSIVYSVPVDKVLERIRMLILNAILLNVLAGAALFTLARMYERRIFIPAESDALRLEEHEQFNRKIVASAPVGICILRTADGVNILSNELAHTYLNMLTHEDRQRLTQIICGQQVNFVDVLTSNNTNLQISFVHSRYRNENVAICVLVDVSSRVKMEESLQEMAQAAEQASQSKSMFLATVSHELRTPLYGIIGNLDLLQTKELPKGVDRLVTAMNNSSSLLLKIISDILDFSKIESEQLKIEPREFSPREVMNHITANYLPLVVRKQLGLYCFIEPDVPVALNGDPMRLQQVISNLLSNAIKFTDTGCIVLHVRADGDYLSIRVRDTGVGIPAKEVVRLFDPFFQVGTGVQRNFQGTGLGLAICEKLISMMDGDISVDSEPGMGSQFTVRIPLYGAQYPQKKGVEGLSGKRCWLAVRNASLCQFLETSLQRSGIVVTTYEGQEPTPEDVLITDEVVSKKWQGRAVVTFCRRHIGIPLEKAPGEWVHSVAAPHELPALLARIYLIEMESDDPANALPSTDKAVSDNDDMMILVVDDHPINRRLLADQLGSLGYQCKTANDGVDALNVLSKNHIDIVLSDVNMPNMDGYRLTQRIRQLGLTLPVIGVTANALAEEKQRCLESGMDSCLSKPVTLDVIKQTLTLYAERVRKSRDS [P0DMC5] | 6.287 ± 0.034 h | 5.76 ± 0.49 h | 6.22 ± 0.067 h | 5.88 ± 0.48 h | 2.98 ± 0.21 h | 6.119 ± 0.024 h | 13.1 ± 2.3 h | 6.01 ± 0.37 h | 11.6 ± 0.28 h | 6.1 ± 0.12 h | 11.8 ± 0.82 h |  |
| MNMKLKTLFAAAFAVVGFCSTASAVTYPLPTDGSRLVGQNQVITIPEGNTQPLEYFAAEYQMGLSNMMEANPGVDTFLPKGGTVLNIPQQLILPDTVHEGIVINSAEMRLYYYPKGTNTVIVLPIGIGQLGKDTPINWTTKVERKKAGPTWTPTAKMHAEYRAAGEPLPAVVPAGPDNPMGLYALYIGRLYAIHGTNANFGIGLRVSHGCVRLRNEDIKFLFEKVPVGTRVQFIDEPVKATTEPDGSRYIEVHNPLSTTEAQFEGQEIVPITLTKSVQTVTGQPDVDQVVLDEAIKNRSGMPVRLN [P0AAX8] | 5.74 ± 0.27 h | 6.22 ± 0.09 h | 6.15 ± 0.32 h | 6.37 ± 0.75 h | 2.9 ± 0.083 h | 5.76 ± 0.11 h | 11.6 ± 0.4 h | 5.98 ± 0.64 h | 13.7 ± 1.3 h | 5.606 ± 0.037 h | 12.3 ± 0.94 h | 6.81 ± 1.6 h |
| MSYQYVNVVTINKVAVIEFNYGRKLNALSKVFIDDLMQALSDLNRPEIRCIILRAPSGSKVFSAGHDIHELPSGGRDPLSYDDPLRQITRMIQKFPKPIISMVEGSVWGGAFEMIMSSDLIIAASTSTFSMTPVNLGVPYNLVGIHNLTRDAGFHIVKELIFTASPITAQRALAVGILNHVVEVEELEDFTLQMAHHISEKAPLAIAVIKEELRVLGEAHTMNSDEFERIQGMRRAVYDSEDYQEGMNAFLEKRKPNFVGH |  |  |  |  | 2.48 h | 2.79 h | 6.64 h |  |  |  |  | 5.13 h |
| MPKLILASTSPWRRALLEKLQISFECAAPEVDETPRSDESPRQLVLRLAQEKAQSLASRYPDHLIIGSDQVCVLDGEITGKPLTEENARLQLRKASGNIVTFYTGLALFNSANGHLQTEVEPFDVHFRHLSEAEIDNYVRKEHPLHCAGSFKSEGFGITLFERLEGRDPNTLVGLPLIALCQMLRREGKNPLMG [P0A729] |  | 4.118 ± 0.0072 h |  | 3.68 ± 0.16 h | 3.14 ± 0.5 h | 5.174 ± 0.02 h | 8.34 ± 0.7 h | 3.77 ± 0.35 h | 6.24 ± 0.41 h | 5.45 ± 0.28 h | 12.1 ± 0.56 h | 4.57 ± 0.6 h |
| MPYDSVYSEKRPPGTLRTAWRKFYSDASAMVGLYGCAGLAVLCIFGGWFAPYGIDQQFLGYQLLPPSWSRYGEVSFFLGTDDLGRDVLSRLLSGAAPTVGGAFVVTLAATICGLVLGTFAGATHGLRSAVLNHILDTLLAIPSLLLAIIVVAFAGPSLSHAMFAVWLALLPRMVRSIYSMVHDELEKEYVIAARLDGASTLNILWFAVMPNITAGLVTEITRALSMAILDIAALGFLDLGAQLPSPEWGAMLGDALELIYVAPWTVMLPGAAIMISVLLVNLLGDGVRRAIIAGVE [P0AGH5] | 6.66 h |  |  |  | 3.28 ± 0.12 h |  | 11.5 h | 6.2 ± 0.26 h | 12.8 h | 5.92 h | 13.7 h | 6.49 h |
| MNLWQQNYDPAGNIWLSSLIASLPILFFFFALIKLKLKGYVAASWTVAIALAVALLFYKMPVANALASVVYGFFYGLWPIAWIIIAAVFVYKISVKTGQFDIIRSSILSITPDQRLQMLIVGFCFGAFLEGAAGFGAPVAITAALLVGLGFKPLYAAGLCLIVNTAPVAFGAMGIPILVAGQVTGIDSFEIGQMVGRQLPFMTIIVLFWIMAIMDGWRGIKETWPAVVVAGGSFAIAQYLSSNFIGPELPDIISSLVSLLCLTLFLKRWQPVRVFRFGDLGASQVDMTLAHTGYTAGQVLRAWTPFLFLTATVTLWSIPPFKALFASGGALYEWVINIPVPYLDKLVARMPPVVSEATAYAAVFKFDWFSATGTAILFAALLSIVWLKMKPSDAISTFGSTLKELALPIYSIGMVLAFAFISNYSGLSSTLALALAHTGHAFTFFSPFLGWLGVFLTGSDTSSNALFAALQATAAQQIGVSDLLLVAANTTGGVTGKMISPQSIAIACAAVGLVGKESDLFRFTVKHSLIFTCIVGVITTLQAYVLTWMIP |  |  |  |  | 1.79 h | 1.93 h | 2.6 ± 0.12 h |  |  |  |  |  |
| MKNIKFSLAWQILFAMVLGILLGSYLHYHSDSRDWLVVNLLSPAGDIFIHLIKMIVVPIVISTLVVGIAGVGDAKQLGRIGAKTIIYFEVITTVAIILGITLANVFQPGAGVDMSQLATVDISKYQSTTEAVQSSSHGIMGTILSLVPTNIVASMAKGEMLPIIFFSVLFGLGLSSLPATHREPLVTVFRSISETMFKVTHMVMRYAPVGVFALIAVTVANFGFSSLWPLAKLVLLVHFAILFFALVVLGIVARLCGLSVWILIRILKDELILAYSTASSESVLPRIIEKMEAYGAPVSITSFVVPTGYSFNLDGSTLYQSIAAIFIAQLYGIDLSIWQEIILVLTLMVTSKGIAGVPGVSFVVLLATLGSVGIPLEGLAFIAGVDRILDMARTALNVVGNALAVLVIAKWEHKFDRKKALAYEREVLGKFDKTADQ | 2.63 h |  |  |  | 2.87 h | 4.95 h | > 16 h |  |  |  | 6.24 h |  |

— the supplement of paper PMC11246515
